In the RNAGym collection of RNA variant scans (doi:10.1093/molbev/msab373):

B1: Azoarcus group I ribozyme (parent)
chain: GUGCCUUGCGCCGGGAAACCACGCAAGGGAUGGUGUCAAAUUCGGCGAAACCUAAGCGCCCGCCCGGGCGUAUGGCAACGCCGAGCCAAGCUUCGGCGCCUGCGCCGAUGAAGGUGUAGAGACUAGACGGCACCCACCUAAGGCAAACGCUAUGGUGAAGGCAUAGUCCAGGGAGUGGCGAAAGUCACACAAACCGG

Variants of: B1
Assay: reverse-splicing fitness (ratio to wild type); higher = more active; in vitro selection; Mg2+ level not given
Procedure, shortened: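 An in vitro group I ribozyme library with randomized positions was T7-transcribed and gel-purified. In triplicate, 10 pmol RNA in EPPS pH 7.5 was reacted with 50 pmoles of a 30-nt RNA substrate for 1 h at 37 °C across several added MgCl2 levels (1–48 mM), then stopped with EDTA. Products were reverse transcribed from a substrate-complementary primer, PCR-amplified and sequenced (HiSeq 4000). Fitness is a variant's read proportion after selection over that before, normalised to wild type.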
Work on C82A A145U C150A C169U yielded a reverse-splicing fitness of 0.00955.
For C82A A145U C150A C169A, the reverse-splicing fitness was 0.00847.
With C82A A145U C150A C169G the reverse-splicing fitness was 0.00813.
C82A A145U C150A C169A U176A gave a reverse-splicing fitness of 0.0129.
C82A A145U C150A C169A U176G showed a reverse-splicing fitness of 0.0053.
With C82A A145U C150A C169A U176C the reverse-splicing fitness was 0.0105.
For C82G A111C A120C A145G C150A U176G, the reverse-splicing fitness was 0.00711.
C82G A111C A120C A145G C150A U176A showed a reverse-splicing fitness of 0.0118.
In the case of C82G A111C A120C A145G C150A U176C, the reverse-splicing fitness is reported as 0.0234.
C82A C169A U176C showed a reverse-splicing fitness of 0.0166.
C82A C169A U176A showed a reverse-splicing fitness of 0.015.
C82A C169A U176G showed a reverse-splicing fitness of 0.00441.
C82G A111C A120C A145C C150A C169A U176C gave a reverse-splicing fitness of 0.00933.
C82G A111C A120C A145C C150A C169A U176A showed a reverse-splicing fitness of 0.0156.
Work on C82G A111C A120C A145C C150A C169A U176G yielded a reverse-splicing fitness of 0.00693.
C82G A111C A120C A145C C150G C169A showed a reverse-splicing fitness of 0.00859.
C82G A111C A120C A145C C150G C169U showed a reverse-splicing fitness of 0.00944.
C82G A111C A120C A145C C150G C169G gave a reverse-splicing fitness of 0.00653.
Variant C82G A111C A120C A145G C150U C169G U176G has a reverse-splicing fitness of 0.00699.
In the case of C82G A111C A120C A145G C150U C169G U176C, the reverse-splicing fitness is reported as 0.0162.
For C82G A111C A120C A145G C150U C169G U176A, the reverse-splicing fitness was 0.0122.
For C82A A145G U176A, the reverse-splicing fitness was 0.387.
In the case of C82A A145G U176C, the reverse-splicing fitness is reported as 0.488.
C82A A145G U176G gave a reverse-splicing fitness of 0.113.
C82G A111C A120C A145C gave a reverse-splicing fitness of 0.0447.
For C82G A111C A120C A145G, the reverse-splicing fitness was 0.053.
For C82G A111C A120C A145U, the reverse-splicing fitness was 0.0547.
C82A A145G C169A U176A gave a reverse-splicing fitness of 0.0185.
For C82A A145G C169A U176C, the reverse-splicing fitness was 0.0322.
Variant C82A A145G C169A U176G has a reverse-splicing fitness of 0.00573.
For C82G A111C A120C A145C C169G, the reverse-splicing fitness was 0.00843.
In the case of C82G A111C A120C A145C C169A, the reverse-splicing fitness is reported as 0.00657.
Variant C82G A111C A120C A145C C169U has a reverse-splicing fitness of 0.0151.
C82G A111C A120C A145C C150A U176G gave a reverse-splicing fitness of 0.00623.
C82G A111C A120C A145C C150A U176C gave a reverse-splicing fitness of 0.0115.
C82G A111C A120C A145C C150A U176A gave a reverse-splicing fitness of 0.00989.
Work on C82A C150U C169G yielded a reverse-splicing fitness of 0.0106.
For C82A C150U C169A, the reverse-splicing fitness was 0.0105.
For C82A C150U C169U, the reverse-splicing fitness was 0.0139.
C82G A111C A120C A145U C150G U176C gave a reverse-splicing fitness of 0.0099.
In the case of C82G A111C A120C A145U C150G U176G, the reverse-splicing fitness is reported as 0.00383.
C82G A111C A120C A145U C150G U176A showed a reverse-splicing fitness of 0.00549.
Work on C82G A111C A120C A145U C150G C169G yielded a reverse-splicing fitness of 0.00765.
With C82G A111C A120C A145U C150G C169U the reverse-splicing fitness was 0.00897.
Work on C82G A111C A120C A145U C150G C169A yielded a reverse-splicing fitness of 0.00941.
For C82G A111C A120C A145G C150G C169A U176A, the reverse-splicing fitness was 0.0142.
C82G A111C A120C A145G C150G C169A U176C gave a reverse-splicing fitness of 0.0127.
C82G A111C A120C A145G C150G C169A U176G gave a reverse-splicing fitness of 0.0086.
C82A A145G C150G U176A showed a reverse-splicing fitness of 0.0291.
C82A A145G C150G U176G gave a reverse-splicing fitness of 0.0113.
For C82A A145G C150G U176C, the reverse-splicing fitness was 0.0513.
C82A C150U U176G gave a reverse-splicing fitness of 0.069.
For C82A C150U U176A, the reverse-splicing fitness was 0.24.
C82A C150U U176C showed a reverse-splicing fitness of 0.253.
For C82A C150G C169U U176G, the reverse-splicing fitness was 0.00641.
With C82A C150G C169U U176C the reverse-splicing fitness was 0.0109.
C82A C150G C169U U176A showed a reverse-splicing fitness of 0.00724.
Work on C82G A111C yielded a reverse-splicing fitness of 0.281.
For C82G A111C A120C A145G C150A C169A U176A, the reverse-splicing fitness was 0.0165.
In the case of C82G A111C A120C A145G C150A C169A U176G, the reverse-splicing fitness is reported as 0.00862.
Work on C82G A111C A120C A145G C150A C169A U176C yielded a reverse-splicing fitness of 0.0188.
C82G A111C A120C A145C C150U C169G U176A showed a reverse-splicing fitness of 0.0246.
For C82G A111C A120C A145C C150U C169G U176G, the reverse-splicing fitness was 0.00745.
With C82G A111C A120C A145C C150U C169G U176C the reverse-splicing fitness was 0.0168.
Work on C82G A111C A120C yielded a reverse-splicing fitness of 0.0556.
With C82A A145U C169A the reverse-splicing fitness was 0.0085.
Work on C82A A145U C169G yielded a reverse-splicing fitness of 0.00976.
With C82A A145U C169U the reverse-splicing fitness was 0.0136.
Variant C82G A111C A120C A145U C150A has a reverse-splicing fitness of 0.011.
For C82G A111C A120C A145U C150U, the reverse-splicing fitness was 0.0335.
In the case of C82G A111C A120C A145U C150G, the reverse-splicing fitness is reported as 0.00916.
Work on C82G A111C A120C A145G C150U U176G yielded a reverse-splicing fitness of 0.00788.
C82G A111C A120C A145G C150U U176A gave a reverse-splicing fitness of 0.0138.
Work on C82G A111C A120C A145G C150U U176C yielded a reverse-splicing fitness of 0.0215.
C82G A111C A120C A145G C150G C169U U176A showed a reverse-splicing fitness of 0.0116.
Work on C82G A111C A120C A145G C150G C169U U176C yielded a reverse-splicing fitness of 0.0117.
C82G A111C A120C A145G C150G C169U U176G showed a reverse-splicing fitness of 0.0072.
With C82G A111C A120C A145G C150G the reverse-splicing fitness was 0.0102.
C82G A111C A120C A145G C150A showed a reverse-splicing fitness of 0.0148.
C82G A111C A120C A145G C150U gave a reverse-splicing fitness of 0.0408.
For C82G A111C A120C A145C C150U C169U U176G, the reverse-splicing fitness was 0.0064.
For C82G A111C A120C A145C C150U C169U U176C, the reverse-splicing fitness was 0.0133.
In the case of C82G A111C A120C A145C C150U C169U U176A, the reverse-splicing fitness is reported as 0.0131.
